# Source: patent US20230348564A1, “ANTI-CANCER PROTEINS” (UNICHEM LABORATORIES LTD, priority 2020, published 2023)
# Tests used:
# [1] = tested on: MDA-MB-231; assay: Annexin-V staining (flow cytometry); assay type: cell-based, Human; settings: 24 h
# Protocol: (§1) The cell lines were maintained in DMEM+10% FBS (heat inactivated) at 37° C. with 5% CO2, and 95% humidity. Antibiotics Penicillin (100 U/mL) and Streptomycin (100 μg/mL) were added to the medium.
# (§2) The stock solution of recombinant lectin having the amino acid sequence of SEQ ID NO. […] Doxorubicin was used as positive control and stock solution was prepared in DMSO.
# (§3) Cells were counted using hemocytometer and plated in culture plates at the density of 0.4×10^6 cells/well in DMEM+10% FBS in 6-well plates. Cells were incubated overnight to allow the cell recovery and exponential growth. Following overnight incubation, cells were treated with Lectin having the amino acid sequence of SEQ ID NO. 2 in DMEM+0% FBS at concentrations ranging from 2.5 μg/mL to 80 μg/mL. Untreated cells were included as Control group for sample. Cells treated with Doxorubicin were included as Positive Control group. DMSO treated cells were included as control group for Doxorubicin. After treatment, cells were incubated for a time period of 24 h.
# (§4) Following incubation, the pro-apoptotic effect was estimated using Annexin assay kit as follows: Annexin reagent contains Annexin-V+7-AAD stain, which differentially labels apoptotic cells in different phases. Four populations of cells can be determined from the flow cytometric plots as follows: • a) Upper Left (UL)—7-AAD(+)/Annexin(−) or Necrotic cells • b) Upper Right (UR)—7-AAD(+)/Annexin(+) or Late apoptotic cells • c) Lower Left (LL)—7-AAD(−)/Annexin(−) or Viable/non-apoptotic cells • d) Lower Right (LR)—7-AAD(−)/Annexin(+) or Early apoptotic cells
# (§5) Cells were gently harvested into pre-labeled sterile centrifuge tubes and centrifuged at 300×g for 5-7 min. Supernatant were discarded and the pellet was resuspended in 200 μl of fresh culture medium.
# (§6) 100 μl of cell suspension was transferred into pre-labeled sterile centrifuge tubes.
# (§7) 100 μl of Annexin-V reagent was added to each tube and incubated for 30 min at RT in dark.
# (§8) Cells stained for Annexin-V were then transferred into 96-well plates and acquired on flow cytometer (Guava technologies). Percentage of cells in early apoptotic, late apoptotic and necrotic phase were determined.
# (§9) Fold increase in apoptotic cells (treated with Test Items) was determined as compared to Control (untreated cells).
# [2] = tested on: PANC-1; assay: Annexin-V staining (flow cytometry); assay type: cell-based, Human; settings: 24 h
# Protocol: as §1, §2, §3, §4, §5, §6, §7, §8, §9
# [3] = tested on: EA.hy926 (Human endothelial cells); assay: Cell migration by scratch assay in endothelial cells; assay type: cell-based
# Protocol: EA.hy296 cells were counted using hemocytometer and plated in 6-well plates at the density of 0.5×10^6 cells/well. The cells were incubated overnight under growth conditions as described above so as to allow cell recovery and exponential growth. Following overnight incubation, a small linear scratch (representative wound) was created in the confluent monolayer (middle of the well) by gently scraping with sterile 200 μl micropipette tip. Photomicrographs of the scratch were taken at 0 h (Initial time point). Cells were rinsed with serum free DMEM and grouped for treatment in two different serum conditions:
# • Baseline control: Cells+DMEM • Positive/Validation control: Baseline control+Positive Control. Test: Baseline control+Test Item
# • Baseline control: Cells+DMEM+1% FBS • Positive/Validation control: Baseline control+Positive Control. • Test: Baseline control+Test item
# Photomicrographs of the scratch were taken at 24 h-72 h time points. The photomicrographs obtained in the above step were analyzed for quantitative assessment of area of wound closure using ImageJ tool software. Percentage migration with respect to untreated cells at different time points was calculated.
molecule,measurement,setting,value
"SEQ ID NO. 2: recombinant lectin; variant of the S. rolfsii lectin amino acid sequence (reported as Rec-2 in WO 2010/095143) (protein, In vitro synthesis) TYKITVRVYQTNPDAFFHPVEKTVWKYANGGTWTITDDQHVLTMGGSGTSGTLRFHADNGESFTATFGVHNYKRWCDIVTNLAADETGMVINQQYYSQKNREEARERQLSNYQVKNAKGRNFQIVYTEAEGNDLHANLIIG","% Population of cells, LL Annex− 7AAD− Viable",[1]; 2.5 μg/mL,75.7%
same,"% Population of cells, LR Annex+ 7AAD− Early apoptotic",[1]; 2.5 μg/mL,7.9%
same,"% Population of cells, UL Annex− 7AAD+ Necrotic",[1]; 2.5 μg/mL,3.2%
same,"% Population of cells, UR Annex+ 7AAD+ Late apoptotic",[1]; 2.5 μg/mL,13.2%
same,"Fold increase (wrt control), LR Annex+ 7-AAD−",[1]; 2.5 μg/mL,15.8 fold
same,"Fold increase (wrt control), UL Annex− 7-AAD+",[1]; 2.5 μg/mL,4.6 fold
same,"Fold increase (wrt control), UR Annex+ 7-AAD+",[1]; 2.5 μg/mL,22.0 fold
same,"% Population of cells, LL Annex− 7AAD− Viable",[1]; 5 μg/mL,72.3%
same,"% Population of cells, LR Annex+ 7AAD− Early apoptotic",[1]; 5 μg/mL,7.0%
same,"% Population of cells, UL Annex− 7AAD+ Necrotic",[1]; 5 μg/mL,12.5%
same,"% Population of cells, UR Annex+ 7AAD+ Late apoptotic",[1]; 5 μg/mL,8.2%
same,"Fold increase (wrt control), LR Annex+ 7-AAD−",[1]; 5 μg/mL,14.0 fold
same,"Fold increase (wrt control), UL Annex− 7-AAD+",[1]; 5 μg/mL,17.9 fold
same,"Fold increase (wrt control), UR Annex+ 7-AAD+",[1]; 5 μg/mL,13.7 fold
same,"% Population of cells, LL Annex− 7AAD− Viable",[1]; 10 μg/mL,64.1%
same,"% Population of cells, LR Annex+ 7AAD− Early apoptotic",[1]; 10 μg/mL,5.8%
same,"% Population of cells, UL Annex− 7AAD+ Necrotic",[1]; 10 μg/mL,20.6%
same,"% Population of cells, UR Annex+ 7AAD+ Late apoptotic",[1]; 10 μg/mL,9.5%
same,"Fold increase (wrt control), LR Annex+ 7-AAD−",[1]; 10 μg/mL,11.6 fold
same,"Fold increase (wrt control), UL Annex− 7-AAD+",[1]; 10 μg/mL,29.4 fold
same,"Fold increase (wrt control), UR Annex+ 7-AAD+",[1]; 10 μg/mL,15.8 fold
same,"% Population of cells, LL Annex− 7AAD− Viable",[1]; 20 μg/mL,58.5%
same,"% Population of cells, LR Annex+ 7AAD− Early apoptotic",[1]; 20 μg/mL,2.9%
same,"% Population of cells, UL Annex− 7AAD+ Necrotic",[1]; 20 μg/mL,32.7%
same,"% Population of cells, UR Annex+ 7AAD+ Late apoptotic",[1]; 20 μg/mL,5.9%
same,"Fold increase (wrt control), LR Annex+ 7-AAD−",[1]; 20 μg/mL,5.8 fold
same,"Fold increase (wrt control), UL Annex− 7-AAD+",[1]; 20 μg/mL,46.7 fold
same,"Fold increase (wrt control), UR Annex+ 7-AAD+",[1]; 20 μg/mL,9.8 fold
same,"% Population of cells, LL Annex− 7AAD− Viable",[1]; 80 μg/mL,61.0%
same,"% Population of cells, LR Annex+ 7AAD− Early apoptotic",[1]; 80 μg/mL,5.3%
same,"% Population of cells, UL Annex− 7AAD+ Necrotic",[1]; 80 μg/mL,26.0%
same,"% Population of cells, UR Annex+ 7AAD+ Late apoptotic",[1]; 80 μg/mL,7.7%
same,"Fold increase (wrt control), LR Annex+ 7-AAD−",[1]; 80 μg/mL,10.6 fold
same,"Fold increase (wrt control), UL Annex− 7-AAD+",[1]; 80 μg/mL,37.1 fold
same,"Fold increase (wrt control), UR Annex+ 7-AAD+",[1]; 80 μg/mL,12.8 fold
same,"% Population of cells, LL Annex− 7AAD− Viable",[2]; 2.5 μg/mL,87.7%
same,"% Population of cells, LR Annex+ 7AAD− Early apoptotic",[2]; 2.5 μg/mL,0.5%
same,"% Population of cells, UL Annex− 7AAD+ Necrotic",[2]; 2.5 μg/mL,10.8%
same,"% Population of cells, UR Annex+ 7AAD+ Late apoptotic",[2]; 2.5 μg/mL,1.0%
same,"Fold increase (wrt control), LR Annex+ 7-AAD−",[2]; 2.5 μg/mL,5.0 fold
same,"Fold increase (wrt control), UL Annex− 7-AAD+",[2]; 2.5 μg/mL,1.0 fold
same,"Fold increase (wrt control), UR Annex+ 7-AAD+",[2]; 2.5 μg/mL,2.5 fold
same,"% Population of cells, LL Annex− 7AAD− Viable",[2]; 5 μg/mL,81.3%
same,"% Population of cells, LR Annex+ 7AAD− Early apoptotic",[2]; 5 μg/mL,0.4%
same,"% Population of cells, UL Annex− 7AAD+ Necrotic",[2]; 5 μg/mL,15.5%
same,"% Population of cells, UR Annex+ 7AAD+ Late apoptotic",[2]; 5 μg/mL,2.8%
same,"Fold increase (wrt control), LR Annex+ 7-AAD−",[2]; 5 μg/mL,4.0 fold
same,"Fold increase (wrt control), UL Annex− 7-AAD+",[2]; 5 μg/mL,1.5 fold
same,"Fold increase (wrt control), UR Annex+ 7-AAD+",[2]; 5 μg/mL,7.0 fold
same,"% Population of cells, LL Annex− 7AAD− Viable",[2]; 10 μg/mL,78.7%
same,"% Population of cells, LR Annex+ 7AAD− Early apoptotic",[2]; 10 μg/mL,0.0%
same,"% Population of cells, UL Annex− 7AAD+ Necrotic",[2]; 10 μg/mL,20.8%
same,"% Population of cells, UR Annex+ 7AAD+ Late apoptotic",[2]; 10 μg/mL,0.4%
same,"Fold increase (wrt control), UL Annex− 7-AAD+",[2]; 10 μg/mL,2.0 fold
same,"Fold increase (wrt control), UR Annex+ 7-AAD+",[2]; 10 μg/mL,1.0 fold
same,"% Population of cells, LL Annex− 7AAD− Viable",[2]; 20 μg/mL,71.5%
same,"% Population of cells, LR Annex+ 7AAD− Early apoptotic",[2]; 20 μg/mL,0.0%
same,"% Population of cells, UL Annex− 7AAD+ Necrotic",[2]; 20 μg/mL,28.1%
same,"% Population of cells, UR Annex+ 7AAD+ Late apoptotic",[2]; 20 μg/mL,0.4%
same,"Fold increase (wrt control), UL Annex− 7-AAD+",[2]; 20 μg/mL,2.7 fold
same,"Fold increase (wrt control), UR Annex+ 7-AAD+",[2]; 20 μg/mL,1.0 fold
same,"% Population of cells, LL Annex− 7AAD− Viable",[2]; 80 μg/mL,72.8%
same,"% Population of cells, LR Annex+ 7AAD− Early apoptotic",[2]; 80 μg/mL,0.0%
same,"% Population of cells, UL Annex− 7AAD+ Necrotic",[2]; 80 μg/mL,26.7%
same,"% Population of cells, UR Annex+ 7AAD+ Late apoptotic",[2]; 80 μg/mL,0.5%
same,"Fold increase (wrt control), UL Annex− 7-AAD+",[2]; 80 μg/mL,2.6 fold
same,"Fold increase (wrt control), UR Annex+ 7-AAD+",[2]; 80 μg/mL,1.3 fold
same,inhibition of endothelial cells migration as compared to control (DMEM),"[3]; 20 μg/mL to 100 μg/mL, after 72 hrs",71.5% to 82.4%
same,Inhibition of migration with respect to untreated,"[3]; 20 μg/mL, 24 h, 1% FBS",0.8%
same,Inhibition of migration with respect to untreated,"[3]; 20 μg/mL, 24 h, SFM",74%
same,Inhibition of migration with respect to untreated,"[3]; 20 μg/mL, 48 h, 1% FBS",5.4%
same,Inhibition of migration with respect to untreated,"[3]; 20 μg/mL, 48 h, SFM",81.1%
same,Inhibition of migration with respect to untreated,"[3]; 20 μg/mL, 72 h, SFM",82.4%
same,Inhibition of migration with respect to untreated,"[3]; 40 μg/mL, 24 h, 1% FBS",28.5%
same,Inhibition of migration with respect to untreated,"[3]; 40 μg/mL, 24 h, SFM",80.5%
same,Inhibition of migration with respect to untreated,"[3]; 40 μg/mL, 48 h, 1% FBS",35.3%
same,Inhibition of migration with respect to untreated,"[3]; 40 μg/mL, 48 h, SFM",82.3%
same,Inhibition of migration with respect to untreated,"[3]; 40 μg/mL, 72 h, SFM",82.2%
same,Inhibition of migration with respect to untreated,"[3]; 50 μg/mL, 24 h, 1% FBS",30.0%
same,Inhibition of migration with respect to untreated,"[3]; 50 μg/mL, 24 h, SFM",79.9%
same,Inhibition of migration with respect to untreated,"[3]; 50 μg/mL, 48 h, 1% FBS",42.9%
same,Inhibition of migration with respect to untreated,"[3]; 50 μg/mL, 48 h, SFM",81%
same,Inhibition of migration with respect to untreated,"[3]; 50 μg/mL, 72 h, SFM",79.5%
same,Inhibition of migration with respect to untreated,"[3]; 60 μg/mL, 24 h, 1% FBS",50.1%
same,Inhibition of migration with respect to untreated,"[3]; 60 μg/mL, 24 h, SFM",82.0%
same,Inhibition of migration with respect to untreated,"[3]; 60 μg/mL, 48 h, 1% FBS",63.5%
same,Inhibition of migration with respect to untreated,"[3]; 60 μg/mL, 48 h, SFM",77.3%
same,Inhibition of migration with respect to untreated,"[3]; 60 μg/mL, 72 h, SFM",76.0%
same,Inhibition of migration with respect to untreated,"[3]; 80 μg/mL, 24 h, 1% FBS",65.6%
same,Inhibition of migration with respect to untreated,"[3]; 80 μg/mL, 24 h, SFM",80.5%
same,Inhibition of migration with respect to untreated,"[3]; 80 μg/mL, 48 h, 1% FBS",77.8%
same,Inhibition of migration with respect to untreated,"[3]; 80 μg/mL, 48 h, SFM",78.2%
same,Inhibition of migration with respect to untreated,"[3]; 80 μg/mL, 72 h, SFM",74.5%
same,Inhibition of migration with respect to untreated,"[3]; 100 μg/mL, 24 h, 1% FBS",73.8%
same,Inhibition of migration with respect to untreated,"[3]; 100 μg/mL, 24 h, SFM",55.7%
same,Inhibition of migration with respect to untreated,"[3]; 100 μg/mL, 48 h, 1% FBS",73.1%
same,Inhibition of migration with respect to untreated,"[3]; 100 μg/mL, 48 h, SFM",73.2%
same,Inhibition of migration with respect to untreated,"[3]; 100 μg/mL, 72 h, SFM",71.5%
